Test system: K4 kissing-loop RNA reporter
Test: apparent KD of K4 kissing-loop reporter; higher = weaker reporter binding
Conditions: Eterna round: R107
Method: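 RNA-MaP round R107: designed RNA switches with theophylline, tryptophan, arginine or FMN aptamers are transcribed on-chip within common flanks. They are titrated with a labelled K4 kissing-loop RNA reporter in RNA-MaP buffer (100 mM Tris pH 7.5, 80 mM KCl, 4 mM MgCl2), without ligand or with the indicated ligand. Median apparent KD per design.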

[1] = input ligand: theophylline 20 uM
[2] = input ligand: tryptophan 2.4 mM
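Note: bound reporter read as fluorescence of individual clusters on recovered sequencing chips by microscopy, with normalized cluster intensities fitted with a binding model.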

| Sequence | apparent KD of K4 kissing-loop reporter (input ligand: FMN 200 uM) | apparent KD of K4 kissing-loop reporter (input ligand: arginine 13.2 mM) | apparent KD of K4 kissing-loop reporter (input ligand: none) | apparent KD of K4 kissing-loop reporter [1] | apparent KD of K4 kissing-loop reporter [2] |
| --- | --- | --- | --- | --- | --- |
| UUCCAGUGAUGUUGGUAUCUGAUAAGGGAAGGAGCGCGGAUUAACGCAGGUAGGUCGCCCAAGUAAUAAAUGUUUAUUAAUUGAU [Default title] | 183 nM | 193 nM | 201 nM | 161 nM | 188 nM |
| AUCACAGUGAUGUUGUGAUAUGAUUCAGAUACCAGACUAGUGCUAGUCCCUUGGCAGCUGAACUCAGCAGCACCACUAGCACUCU [Theo A Ex t6] | 157 nM | 132 nM | 148 nM | 166 nM | 149 nM |
| UGGAGUUGACGAAAAGUCAACUCCUGAGAUACCAGUGACGAAAGUCACCCUUGGCAGCUCACUGCCAGUGAUGUUGGUAUAUAAA [#OpenEnded 4] | 82.6 nM | 71.4 nM | 61 nM | 146 nM | 124 nM |
| AAGAGUAAACUCUAACUCCUUAAGUCCGAAGGAGCGACUCAAUGGUCAGGUAGGUCGCGGACAAUCCUAGUGAUGUUAGGAUCUG [Arg A SS t5] | 252 nM | 220 nM | 268 nM | 260 nM | 211 nM |
| AGUGAUAUAUGAGGAUAUGGGAUAGUUAAUGAGUUAGUUUUAGUGUUGUUUGGUUAGUGAUGUUAUUUAGAAGGCGUGAGUGAUG [tptymullin] | 107 nM | 74.3 nM | 76.7 nM | 106 nM | 74.4 nM |
| AAAGCUUGGAUGGACGUUAGCGACGGAGAAGGAGCGCACGGAAGUGCAGGUAGGUCGCUCCGAGUGAUGUUCGUGAGUGAUUGCU [Ditienti] | 229 nM | 329 nM | 385 nM | 252 nM | 301 nM |
| GGGAAACCCAAUCAUACGGCGGUUCUUAGUCGAGGACCGGUACGGCCGCCACUCGAACUUGCUAGUGAUGUUAGCUUAUCGAGCU | 221 nM | 296 nM | 253 nM | 265 nM | 162 nM |
| UUACUACCCAGUGAUGUUGGGUAGCGGCGGCGAGGACCGGUACGGCCGCCACUCGGCGCACGGGAGUGAUGUUCCUGGGAAUAUA [Same State Tryptophan A GF 10] | 281 nM | 187 nM | 375 nM | 709 nM | 254 nM |
| CGGAUGUAGUGAUGUUAUAUUAGAUGUAGACGAGGACCGGUACGGCCGCCACUCGUGAUGGCUGCUAGCACGUUUCGAGGUUUGC [ExTryptoA.Cp] | 515 nM | 624 nM | 604 nM | 438 nM | 489 nM |
| GUUAUCACGCGAAGGAGCGCGGAGCGAUAACGCAGUGAUGUUGCGUUAAACGUAAUAUAAUCGCAGGUAGGUCGCGCGUGAUACC [Arg B Ex t6] | 104 nM | 80.2 nM | 94.2 nM | 82.1 nM | 95.6 nM |
| AAUAUAGUGAUGUUAUAUAAGAAGGAGUUACGAGGACCGGUACGGCCGCCACUCGAAACGAGUGAUGAUUUGGGAGAUUGGGUUG [SSTryptA.N] | 484 nM | 347 nM | 489 nM | 433 nM | 370 nM |
| UGCACGGGCUCGGCCGCCACUCCAGCGGGUCGAAAGGUCCGCUACUGAGUGAUGUUCGGUUGGAGGAGGACCGGGAGCCCGUGCA [#2 Exclusion - Tryptophan B Attempt #28 (HarryS)] | 98.9 nM | 97.9 nM | 122 nM | 115 nM | 140 nM |
| AAUGCAUAGUGAAGGAGCGCGAUAAGCAGUGAUGUUGCUUAGCUAUUAUUCAUUAUUUUAACGCAGGUAGGUCGCACUUUGCAUA [JR_ExcArginiB_Sub015] | 131 nM | 127 nM | 128 nM | 151 nM | 128 nM |
| AAGUUGAACUGAAGGAGCGAGAAAUAGAAUGUAAGAAUAUAUGCUAGUGAUGUUAGAAAUUCUCAGGUAGGUCGCAGUAAGAUUU [V1.1] | 277 nM | 328 nM | 330 nM | 558 nM | 192 nM |
| AGUGAUGUUGAGUUAUCUUAGUGAAGUGAUCGAGGACCGGUACGGCCGCCACUCGAGUGAUGAGUGAGUGAUGUUUGUUUAGUGA [zzymullin] | 546 nM | 431 nM | 549 nM | 593 nM | 311 nM |
| AAAUUUAUAUUAGAUACCAGUAUUUUGAAUGUUUAUUAUGACAAGAGUGAUGUUCUUGUAUGCCCUUGGCAGCUGGUAUGGGUUU [KL-XTheo-B23] | 116 nM | 111 nM | 111 nM | 113 nM | 115 nM |
| UUUUUAAACUCGGCCGCCACUCAAAUGGGAGUGAUGUUCCCAAAAUAAUAAAUAAAUAAUAAUAAGAGGACCGGGAGAAAUUUUU [Same State - Trytophan B] | 94 nM | 98.2 nM | 106 nM | 94.8 nM | 81.3 nM |
| AGUGGACGUGUCCGGAGUGAUGUUCCGGAUACCAGACACGAAAGUGUCCCUUGGCAGCAGGAGUGAUGUUCCGGCGUUCACUAAA [Omei KL Theo A Exc B v3] | 351 nM | 223 nM | 314 nM | 347 nM | 274 nM |
| GCAAAACGCAGUGAUGUUGCGAUCUCGGAAGGAGCGCGUGAAAACGCAGGUAGGUCGCCGAGUCAGUGAGUAUCUCGCUGUUUGC [Arginine A K4 19] | 383 nM | 352 nM | 489 nM | 455 nM | 322 nM |
| CCCAGUGAUGUUGGGAGUAGCCACAGGGAAGGAGCGUGCUAGAGCACAGGUAGGUCGCCCACUGGGUCAGUGAUGUUGGUCGGGU [Same State Arginine A GF 28] | 275 nM | 178 nM | 186 nM | 361 nM | 208 nM |
| AGGGUAAGGCGUUAACAUGACACCUGGGAAGGAGCGCGGUACACCGCAGGUAGGUCGCCCAGUGAUGUUGGGUGUAUGUAUGAGU [KL-XArg-A21] | 170 nM | 120 nM | 139 nM | 154 nM | 132 nM |
| ACACGUGUGGCAGGAUAUCGGGCUGUGGAUCGGCUGGUUACUUAUUCUCGACCAGUGAUGUUGGUACGAGAAGGGCUACCCAGAA [Cetebera] | 145 nM | 124 nM | 139 nM | 135 nM | 116 nM |

| Sequence | apparent KD of K4 kissing-loop reporter (input ligand: FMN 200 uM) | apparent KD of K4 kissing-loop reporter (input ligand: arginine 13.2 mM) | apparent KD of K4 kissing-loop reporter (input ligand: none) | apparent KD of K4 kissing-loop reporter [1] | apparent KD of K4 kissing-loop reporter [2] |
| --- | --- | --- | --- | --- | --- |
| UUUUUAUUCAGUGAUGUUGAAUUUAUAACAGAGGAUAUGCAUAAAAGCAGAAGGCUGAAAUACUAUACUUUAAUAAAUUAUAUUU [JR_SSFMNA_Sub016] | 214 nM | 274 nM | 261 nM | 326 nM | 192 nM |
| AGUCCACUCUAAAGAGUGGACCUAAGGGAUACCAGUGAUGUUGGUCACCCUUGGCAGCCCUCUGUCAUCGAUAAAGAUGGCAGCA | 132 nM | 114 nM | 136 nM | 149 nM | 145 nM |
| UAAGAAUAAGUAGCAGUGAUGUUGCUACUACGAGGACCGGUACGGCCGCCACUCGAGCCGUACCAACUGCUACAAGGUACGAAUA [(H1)-(H2)-(Trp1)-(Trp2)-(T)'-(H)'-(T)''] | 281 nM | 224 nM | 242 nM | 243 nM | 257 nM |
| AUACGCGAUAGCGUAUAUAACAAAUCAGAAGGAGCGUGGAAGUACACAGGUAGGUCGCUGAAAAUAGGACUAGUGAUGUUAGUUA [JR_Nu_SSArginiA_Sub026] | 211 nM | 193 nM | 232 nM | 172 nM | 166 nM |
| GCAGAACGCAGUGAUGUUGCGAAAUCGGAAGGAGCGCGUGAAAACGCAGGUAGGUCGCCGACACAGGGAUUAUAUCCCUGUUUGC [Arginine A K4 17] | 178 nM | 169 nM | 182 nM | 206 nM | 133 nM |
| GAGGUUUACGUAGGAUAUCGAUAAUGAGUAAAUGGAGUGAUGUUCCGAAAUUGAAUAAGAGAUGAGCGAGAAGGGCGGAUUAAGC [FMN B Same State; Euporia Solution] | 39.1 nM | 41.4 nM | 37.8 nM | 66.5 nM | 43.4 nM |
| UUAGGGAUCUCGGCCGCCACUCGUGGGAAAUGGGCCUCAGGGAUAUAGUGAUGUUAUGUAAAGAAGAGGACCGGGAGAAGGAAGG [ExTryptoB.Di] | 451 nM | 364 nM | 476 nM |  | 155 nM |
| AAGAAGAAUGGAAGGAGCGAGCAGAUAUAACCAGUGAUGUUGGAAAGCCUUAUUGCUUAAGCUCAGGUAGGUCGCCAAGAAGAGA [whbob_Ex_Arginine_B_2t152] | 179 nM | 159 nM | 179 nM | 192 nM | 184 nM |
| CGCCAUAACACGGCCGCCACUCAUCAAGCUCAGUGAUGUUGAGCAGCAGCUGCAAUCGCGAUUACGAGGACCGGGUGCUGUCUGU [theeternabot_sameState_KL_Trp_B_50] | 286 nM | 329 nM | 314 nM | 357 nM | 231 nM |
| AUAGGAGUGAUGUUCCUUAGUCCCUCCGAUACCAGUAUGGAAACAUACCCUUGGCAGCGGUGGACCGCAGAUUAGGAAACUAGUC [Theophylline A K4 4] | 232 nM | 238 nM | 216 nM | 231 nM | 206 nM |
| UGUGUUGUUUUGAUGUUUGUUGUAAGUUGGCAGGAUAUCGUAGAGGCGAGAAGGGCUUUUAUGCGUUAUGAGUGAUGUUUGUAGG [ggbgzmullin] | 353 nM | 241 nM | 357 nM | 351 nM | 319 nM |
| AAACAUCACUGGGAGUGAUGUUCUCAGUGACGAGGACCGGUACGGCCGCCACUCGCGAGAGAUAUAAUUAAGUAAUGACUUCAUU [Excl Tryptophan A V7] | 241 nM | 205 nM | 231 nM | 246 nM | 287 nM |
| AAGCUCAGCGUGACUCGAUAAGAGUCACAACGAGGACCGGUACGGCCGCCACUCGAAAUAAGGGAGUGAUGUUCUCGCUGAGCAA [#SwitchBubble 5 #StaticStem #K4Late] | 348 nM | 134 nM | 291 nM | 364 nM | 587 nM |
| UGACAUUGCUCAGAUACCAGACUUGAGGAUCACCCAGGUGCCAAAUACGUACAAAUAAAAGUCCCUUGGCAGCUGAGCAAUGUCU [TheoBX 12] | 72.1 nM | 55.6 nM | 63.1 nM | 113 nM | 29.3 nM |
| GGCGGCCGCGCGCAAGCGCGGCCGGCCGAUACCAGCGCGCCGGCGCGCCCUUGGCAGCGGCGCCGAGUGAUGUUCGGCCUGCCGG [#2 Same State - Theophylline A Attempt #9 (HarryS)] | 477 nM | 267 nM | 449 nM | 374 nM | 401 nM |
| AAGUGAUGUUGUAGUGAUGUUGUGAUGUUGCAGGAUAUAUAGUGAUGUAGAAGGGUAAGUACUGAUGUUGUUAGUAAGUGAUGUU [tvvbmullin] | 106 nM | 50.1 nM | 89.9 nM | 76.6 nM | 77.8 nM |
| AGACUACCUACACUGUCAAUAGACAGUGACUAGGAUAUGCUGAUAAGCAGAAGGAGUGAUGUUCCAAAUAAAAGGUGGUAGUCAU [FmnAX 18 #SwitchBubble #StaticStem #K4Early] | 378 nM | 160 nM | 142 nM | 152 nM | 111 nM |
| UUUAACGAGUGAUGUUCGAAGAGUAAGGGUGAGGAUAUCGAUUUUUCGAGAAGGCGCCUCGAAGUGAUACGAAAGUAUCGCUUCG [FMN A 7] | 246 nM | 224 nM | 269 nM | 269 nM | 215 nM |
| UUCAGGUGUUCGGCCGCCACUCCAGUGAUGUUGGAGUGGCUUCACAAGGACCAGGACAAUGUAAGGAGGACCGGGAAUAUCUCAG [Vequleat] | 130 nM | 105 nM | 136 nM | 128 nM | 118 nM |
| UGAUAGGACAGAAGGAGCGGAAUGCUGUCCAAAAGGACAGCAAAUAUAAAAGGAGUGAUGUUCCAGGUAGGUCGCUGUCCUAUCU [ArgBX 20 #SwitchBubble #StaticStem] | 271 nM | 206 nM | 219 nM | 234 nM | 203 nM |
| CGACCGGUAGCGGAUACCAGCCUUUGAGUGAUGUUCGAGUUGAGUUUCCGCGCGUCGAAAGGCCCUUGGCAGCCGAUACGCCUUC [theeternabot_exclusion_KL_Theo_B_14] | 236 nM | 192 nM | 207 nM | 187 nM | 188 nM |

— the supplement of paper PMC9170038
